The source of these data is US9138474B2, “Composition comprising expression or activity inhibitors of Ninjurin1 for the prevention and treatment of inflammatory disease” (SNU R&DB FOUNDATION, priority 2008, dated 2015).

The subject of one assay is Wnt7b expression. As to the kind of experiment: Wnt7b expression (RT-PCR) in BV2 cells expressing Myc-Ninjurin1 treated with p38 inhibitor. In kind it is cell-based, rodent. As to conditions: 0, 10, 30 uM, 24 hours. How it is done: Primary cultured human microvascular pericytes (Applied Cell Biology Research Institute) were cultured in Dulbecco's modified Eagle's medium (DMEM); Raw 264.7 cells (TIB-71™) and BV2 cells were cultured in DMEM; and HUVEC cells were cultured in M199 supplemented with 20% FBS (Invitrogen, Grand Island, N.Y.). Those cells were cultured at 37° C. in humid air composed of […] and 5% CO2. Raw cells and BV2 cells were transformed by using Lipofectamine Plus Reagent (Invitrogen). Cell lysate was prepared by using lysis buffer (40 mM Tris-Cl pH 8.4, 10 mM EDTA, 120 mM NaCl, 0.1% NP-40). To prepare culture solution to treat human microvascular pericytes, transformed macrophages were cultured in serum (FBS)-free DMEM for 24 hours, which were then filtered with 0.22 […] filter paper (Millipore), followed by 10 fold concentration using centrifugation filtering tube (Millipore). For the chemical treatment, cells were cultured at the density of 60-70% and then treated with Ang1 and Ang2 (500-1000 ng/ml) independently or together in serum free condition for 14-16 hours. To understand signal transduction pathway, cells were transformed with Mock or Ninjurin1 cDNA. Serum was depleted for 14-16 hours and then the cells were treated with SB203580 (Sigma), the p38 inhibitor, for 24 hours. […]

Assay [1] deals with rodent originated macrophages (Raw264.7, BV2). As to the kind of experiment: Wnt7b and Ninjurin1 quantified by RT-PCR in macrophages in the presence of rh-Ang1 or rh-Ang2. In kind it is cell-based. As to conditions: 0, 1 and 2.5 ug/ml. How it is done:
Primary cultured human microvascular pericytes (Applied Cell Biology Research Institute) were cultured in Dulbecco's modified Eagle's medium (DMEM); Raw 264.7 cells (TIB-71™) and BV2 cells were cultured in DMEM; and HUVEC cells were cultured in M199 supplemented with 20% FBS (Invitrogen, Grand Island, N.Y.). Those cells were cultured at 37° C. in humid air composed of […] and 5% CO2. Raw cells and BV2 cells were transformed by using Lipofectamine Plus Reagent (Invitrogen). Cell lysate was prepared by using lysis buffer (40 mM Tris-Cl pH 8.4, 10 mM EDTA, 120 mM NaCl, 0.1% NP-40). To prepare culture solution to treat human microvascular pericytes, transformed macrophages were cultured in serum (FBS)-free DMEM for 24 hours, which were then filtered with 0.22 […] filter paper (Millipore), followed by 10 fold concentration using centrifugation filtering tube (Millipore). For the chemical treatment, cells were cultured at the density of 60-70% and then treated with Ang1 and Ang2 (500-1000 ng/ml) independently or together in serum free condition for 14-16 hours. To understand signal transduction pathway, cells were transformed with Mock or Ninjurin1 cDNA. Serum was depleted for 14-16 hours and then the cells were treated with SB203580 (Sigma), the p38 inhibitor, for 24 hours.
Particularly, RT-PCR and real time PCR were performed as follows: Transformed BV2 cells were cultured in DMEM supplemented with 1% serum for 2 days, and then RNA was extracted by using Trizol reagent (Invitrogen). Following primers were used for RT-PCR: Gapdh: forward primer 5′-[…]-3′ (SEQ. ID. NO: 4), reverse primer 5′-[…]-3′ (SEQ. ID. NO: 5); Ninjurin1: forward primer 5′-GAGTCGGGCACTGAGGA-3′ (SEQ. ID. NO: 6), reverse primer: 5′-GTTGCAGGGGTCTGGTCA-3′ (SEQ. ID. NO: 7); Ang1: forward primer 5′-[…]-3′ (SEQ. ID. NO: 8), reverse primer: 5′-[…]-3′ (SEQ. ID. NO: 9); Ang2: forward primer 5′-[…]-3′ (SEQ. ID. NO: 10), reverse primer: 5′-[…]-3′ (SEQ. ID. NO: 11); Wnt7b: forward primer 5′-[…]-3′ (SEQ. ID. NO: 12), reverse primer: 5′-[…]-3′ (SEQ. ID. NO: 13); Wnt7b: 2nd round forward primer 5′-[…]-3′ (SEQ. ID. NO: 14), reverse primer: 5′-[…]-3′ (SEQ. ID. NO: 15). The PCR products were separated on 1.2% agarose gel containing EtBr (ethidium bromide), followed by analysis by digital imaging. Primers used for real-time PCR were as follows: Ang2: forward primer 5′-[…]-3′ (SEQ. ID. NO: 16), reverse primer: 5′-[…]-3′ (SEQ. ID. NO: 17); Gapdh, Ang1 and Wnt7: same primers as used for RT-PCR were used. […]
To investigate interaction among Wnt7b, Ninjurin1, Ang1 and Ang2, Wnt7b and Ninjurin1 were quantified by RT-PCR in the presence of recombinant human Ang1 (rh-Ang1) and rh-Ang2 at different concentrations (0, 1 and 2.5 ug/ml) in rodent originated macrophages (Raw264.7, BV2).

Consider `C[S+]([O-])c1ccc(-c2nc(-c3ccncc3)c(-c3ccc(F)cc3)[nH]2)cc1` (centres unmarked) [p38 inhibitor, SB203580], for which, in the assay with Wnt7b expression, the “Wnt7b expression stimulated by Ninjurin1” value is recorded as “reduced”.

B1: rh-Ang2: recombinant human Ang2 (angiopoietin-2), R&D Systems (protein, UniProt O15123 19-496, looked up)
Angiopoietin-2: YNNFRKSMDSIGKKQYQVQHGSCSYTFLLPEMDNCRSSSSPYVSNAVQRDAPLEYDDSVQRLQVLENIMENNTQWLMKLENYIQDNMKKEMVEIQQNAVQNQTAVMIEIGTNLLNQTAEQTRKLTDVEAQVLNQTTRLELQLLEHSLSTNKLEKQILDQTSEINKLQDKNSFLEKKVLAMEDKHIIQLQSIKEEKDQLQVLVSKQNSIIEELEKKIVTATVNNSVLQKQQHDLMETVNNLLTMMSTSNSAKDPTVAKEEQISFRDCAEVFKSGHTTNGIYTLTFPNSTEEIKAYCDMEAGGGGWTIIQRREDGSVDFQRTWKEYKVGFGNPSGEYWLGNEFVSQLTNQQRYVLKIHLKDWEGNEAYSLYEHFYLSSEELNYRIHLKGLTGTAGKISSISQPGNDFSTKDGDNDKCICKCSQMLTGGWWFDACGPSNLNGMYYPQRQNTNKFNGIKWYYWKGSGYSLKATTMMIRPADF
For B1, in assay [1], the Ninjurin1 expression entry is “increased” and the Wnt7b expression entry was “increased”.

B2: rh-Ang1: recombinant human Ang1 (angiopoietin-1), R&D Systems (protein, UniProt Q15389 16-498, looked up)
Angiopoietin-1: HIGCSNQRRSPENSGRRYNRIQHGQCAYTFILPEHDGNCRESTTDQYNTNALQRDAPHVEPDFSSQKLQHLEHVMENYTQWLQKLENYIVENMKSEMAQIQQNAVQNHTATMLEIGTSLLSQTAEQTRKLTDVETQVLNQTSRLEIQLLENSLSTYKLEKQLLQQTNEILKIHEKNSLLEHKILEMEGKHKEELDTLKEEKENLQGLVTRQTYIIQELEKQLNRATTNNSVLQKQQLELMDTVHNLVNLCTKEGVLLKGGKREEEKPFRDCADVYQAGFNKSGIYTIYINNMPEPKKVFCNMDVNGGGWTVIQHREDGSLDFQRGWKEYKMGFGNPSGEYWLGNEFIFAITSQRQYMLRIELMDWEGNRAYSQYDRFHIGNEKQNYRLYLKGHTGTAGKQSSLILHGADFSTKDADNDNCMCKCALMLTGGWWFDACGPSNLNGMFYTAGQNHGKLNGIKWHYFKGPSYSLRSTTMMIRPLDF
Take B2: in assay [1], the Ninjurin1 expression entry is listed as “reduced” and the Wnt7b expression entry is “reduced”.
